Data taken from patent US20190256597.

System: T1, cleavable peptide CP(AQ), Lys(AQ)SerGlyProLeuGlyValArgGlySerSerCys
T1 sequence: KSGPLGVRGSSC

With “purified, recombinant MMP2 (BioLegend, #554304)” the “proteolytic cleavage followed by thin layer chromatography” value was “after the incubation of CP(AQ) with MMP2, the compound was able to shift organic solution, with a transformed behavior from hydrophilic to hydrophobic”.
